Measured values published in US11072647B2, “TGF-receptor II isoform, fusion peptide, methods of treatment and methods in vitro” (Onsejo Nacional DE Investigation Cientiticay Tecnica, priority 2013, dated 2021).

Tested on: hASCs cells
Experiment: Cytokine Array G5 of supernatants of lentivirally transduced hASCs
Format: cell-based, human
Design: key to IL-6* secreted by hASC / IGFBP-4 secreted by hASC / IL-7 secreted by hASC / LIF secreted by hASC / TNF-α secreted by hASC / FLT3-L secreted by hASC / SCF secreted by hASC / LIGHT secreted by hASC / IL-3 secreted by hASC / Oncostatin M secreted by hASC / FGF-7 secreted by hASC / FGF-9 secreted by hASC / Angiogenin secreted by hASC / BDNF secreted by hASC / NT-3 secreted by hASC / EGF secreted by hASC / NT-4 secreted by hASC / PIGF secreted by hASC / TIMP-1 secreted by hASC / GRO secreted by hASC / TIMP-2 secreted by hASC / CXCL1 (GROα) secreted by hASC / INF-γ secreted by hASC / CXCL6 (GCP-2) secreted by hASC / IL-2 secreted by hASC / CXCL9 (MIG) secreted by hASC / CXCL10 (IP-10) secreted by hASC / Osteopontin secreted by hASC / CXCL12 (SDF-1) secreted by hASC / Osteoprotegerin secreted by hASC / CXCL13 (BLC) secreted by hASC / CCL1 (I-309) secreted by hASC / Leptin secreted by hASC / CCL2 (MCP-1) secreted by hASC / CCL4 (MIP1b) secreted by hASC / GDNF secreted by hASC / CCL7 (MCP-3) secreted by hASC / IL-10 secreted by hASC / CCL8 (MCP-2) secreted by hASC / IL-13 secreted by hASC / CCL17 (TARC) secreted by hASC / IL-1α secreted by hASC / CCL18 (PARC) secreted by hASC / IL-1β secreted by hASC / CCL20 (MIP3a) secreted by hASC / CCL24 (Eotaxin-2) secreted by hASC / IL-12 p70 secreted by hASC / CCL26 (Eotaxin-3) secreted by hASC / IL-15 secreted by hASC / G-CSF secreted by hASC / IGF-1 secreted by hASC / M-CSF secreted by hASC / IGFBP-1 secreted by hASC / GM-CSF secreted by hASC / IGFBP-3 secreted by hASC / TNF-β secreted by hASC / Onc M secreted by hASC / VEGF secreted by hASC / CXCL5 (ENA-78) secreted by hASC / MIF secreted by hASC / CCL11 (Eotaxin) secreted by hASC / IL-5 secreted by hASC / TGF-β1 secreted by hASC: ↑: Increase or decrease of cytokines levels are referred to the levels secreted by cells transduced with the control vector Lt.eGFP; ↓: Increase or decrease of cytokines levels are referred to the levels secreted by cells transduced with the control vector Lt.eGFP; UC: unchanged levels with respect to cells transduced with the control vector Lt.eGFP; Abs: absent in mock transducer cells control; Abs: absent in mock transducer cells control
Protocol: Furthermore, the effect of TβRII-SE recombinant isoform was measured on a panel of 80 cytokines secreted by hASCs cells (FIG. 16). Cells were transduced with either control Lt-GFP, the TGF-β1 inhibitor Lt. TβRII-DN, or Lt-TβRII-SE and incubated in the presence or absence of exogenous TGF-β1. Collected supernatants were used to analyze the cytokines in a Cytokine Array G5 (Raybiotech, Inc. Norcross, USA).
Increase or decrease of cytokines levels are referred to the levels secreted by cells transduced with the control vector Lt.eGFP either in the presence (paracrine) or absence (autocrine) of exogenous TGF-β1. UC: unchanged levels with respect to cells transduced with the control vector Lt.eGFP. Abs: absent in mock transducer cells control. Dark grey boxes: decreased to undetected levels or absent in the supernatant of cells transduced with control vector Lt.eGFP.
A cytokine/chemokine array kit G5 (Ray Biotech Inc., Norcross, Ga.) was used to detect a panel of 80 secreted cytokines as recommended by the manufacturer. hASCs P7 untransduced or transduced with lentiviral vectors were grown for 72 h in a medium supplemented with 0.1% BSA. Supernatants were collected, filtered and frozen after collection. For densitometry analysis of the arrays, Typhoon 9410 Variable mode Imager (GE Healthcare Life Sciences) was used, and signal intensity values were measured using the Image analysis software ImageQuant TL 7.0 (GE Healthcare Life Sciences). Microarray data were analyzed with RayBio® Antibody Array Analysis Tool. Good data quality and adequate normalization were ensured using internal control normalization without background. Any ≥1.5-fold increase or ≤0.65-fold decrease in signal intensity for a single analyte between samples or groups may be considered a measurable and significant difference in expression, provided that both sets of signals are well above background (Mean background+3 standard deviations, accuracy≈99%).

[1] = Autocrine TGF-β1 (no exogenous TGF-β1), vs Lt.eGFP control
[2] = Paracrine TGF-β1 (3 pg/μl), vs Lt.eGFP control

B1: TβRII-SE: 80 amino acid soluble endogenous isoform of human TGF-β receptor II lacking the transmembrane domain, SEQ ID No. 2 (protein, listed as Homo sapiens)
chain: MGRGLLRGLWPLHIVLWTRIASTIPPHVQKSVNNDMIVTDNNGAVKFPQLCKFCDVRFSTCDNQKSCFSKVHYEGKKKAW
OPG secretion (ASC, high TGF-β1 concentration, vs Lt.eGFP-transduced control cells): dramatic drop | Angiogenin secreted by hASC [1]: UC | BDNF secreted by hASC [1]: UC | CCL1 (I-309) secreted by hASC [1]: UC | CCL2 (MCP-1) secreted by hASC [1]: UC | CCL4 (MIP1b) secreted by hASC [1]: UC | CCL7 (MCP-3) secreted by hASC [1]: UC | CCL8 (MCP-2) secreted by hASC [1]: ↑ | CCL17 (TARC) secreted by hASC [1]: UC | CCL18 (PARC) secreted by hASC [1]: ↓ | CCL20 (MIP3a) secreted by hASC [1]: abs | CCL24 (Eotaxin-2) secreted by hASC [1]: ↓ | CCL26 (Eotaxin-3) secreted by hASC [1]: abs | CXCL1 (GROα) secreted by hASC [1]: UC | CXCL6 (GCP-2) secreted by hASC [1]: UC | CXCL9 (MIG) secreted by hASC [1]: UC | CXCL10 (IP-10) secreted by hASC [1]: UC | CXCL12 (SDF-1) secreted by hASC [1]: UC | CXCL13 (BLC) secreted by hASC [1]: abs | EGF secreted by hASC [1]: abs | FGF-7 secreted by hASC [1]: ↓ | FGF-9 secreted by hASC [1]: UC | FLT3-L secreted by hASC [1]: ↓ | G-CSF secreted by hASC [1]: ↓ | GDNF secreted by hASC [1]: UC | GM-CSF secreted by hASC [1]: ↑ | GRO secreted by hASC [1]: UC | IGF-1 secreted by hASC [1]: ↓ | IGFBP-1 secreted by hASC [1]: UC | IGFBP-3 secreted by hASC [1]: ↓ | IGFBP-4 secreted by hASC [1]: abs | IL-1α secreted by hASC [1]: ↓ | IL-1β secreted by hASC [1]: abs | IL-2 secreted by hASC [1]: UC | IL-3 secreted by hASC [1]: UC | IL-6* secreted by hASC [1]: UC | IL-7 secreted by hASC [1]: ↓ | IL-10 secreted by hASC [1]: UC | IL-12 p70 secreted by hASC [1]: UC | IL-13 secreted by hASC [1]: ↓ | IL-15 secreted by hASC [1]: abs | INF-γ secreted by hASC [1]: ↓ | LIF secreted by hASC [1]: UC | LIGHT secreted by hASC [1]: abs | Leptin secreted by hASC [1]: ↓ | M-CSF secreted by hASC [1]: UC | NT-3 secreted by hASC [1]: UC | NT-4 secreted by hASC [1]: UC | Oncostatin M secreted by hASC [1]: ↓ | Osteopontin secreted by hASC [1]: abs | Osteoprotegerin secreted by hASC [1]: UC | PIGF secreted by hASC [1]: ↓ | SCF secreted by hASC [1]: abs | TIMP-1 secreted by hASC [1]: UC | TIMP-2 secreted by hASC [1]: UC | TNF-α secreted by hASC [1]: ↓ | Angiogenin secreted by hASC [2]: UC | BDNF secreted by hASC [2]: Abs | CCL1 (I-309) secreted by hASC [2]: abs | CCL2 (MCP-1) secreted by hASC [2]: UC | CCL4 (MIP1b) secreted by hASC [2]: abs | CCL8 (MCP-2) secreted by hASC [2]: UC | CCL11 (Eotaxin) secreted by hASC [2]: UC | CCL17 (TARC) secreted by hASC [2]: UC | CCL20 (MIP3a) secreted by hASC [2]: UC | CCL24 (Eotaxin-2) secreted by hASC [2]: abs | CCL26 (Eotaxin-3) secreted by hASC [2]: abs | CXCL1 (GROα) secreted by hASC [2]: abs | CXCL5 (ENA-78) secreted by hASC [2]: UC | CXCL6 (GCP-2) secreted by hASC [2]: ↓ | CXCL9 (MIG) secreted by hASC [2]: ↓ | CXCL10 (IP-10) secreted by hASC [2]: ↓ | CXCL12 (SDF-1) secreted by hASC [2]: abs | CXCL13 (BLC) secreted by hASC [2]: ↓ | EGF secreted by hASC [2]: ↓ | FGF-7 secreted by hASC [2]: Abs | FGF-9 secreted by hASC [2]: UC | FLT3-L secreted by hASC [2]: UC | G-CSF secreted by hASC [2]: ↓ | GDNF secreted by hASC [2]: Abs | GM-CSF secreted by hASC [2]: ↓ | GRO secreted by hASC [2]: UC | IGF-1 secreted by hASC [2]: Abs | IGFBP-1 secreted by hASC [2]: Abs | IGFBP-3 secreted by hASC [2]: ↓ | IGFBP-4 secreted by hASC [2]: ↑ | IL-1α secreted by hASC [2]: ↓ | IL-1β secreted by hASC [2]: UC | IL-2 secreted by hASC [2]: Abs | IL-3 secreted by hASC [2]: ↓ | IL-5 secreted by hASC [2]: ↓ | IL-6* secreted by hASC [2]: UC | IL-7 secreted by hASC [2]: ↓ | IL-10 secreted by hASC [2]: ↓ | IL-12 p70 secreted by hASC [2]: ↓ | IL-13 secreted by hASC [2]: ↓ | IL-15 secreted by hASC [2]: ↓ | INF-γ secreted by hASC [2]: ↓ | LIF secreted by hASC [2]: UC | LIGHT secreted by hASC [2]: ↓ | M-CSF secreted by hASC [2]: abs | MIF secreted by hASC [2]: UC | NT-3 secreted by hASC [2]: ↓ | NT-4 secreted by hASC [2]: Abs | Onc M secreted by hASC [2]: abs | Osteopontin secreted by hASC [2]: ↓ | PIGF secreted by hASC [2]: ↓ | SCF secreted by hASC [2]: UC | TGF-β1 secreted by hASC [2]: UC | TIMP-1 secreted by hASC [2]: UC | TNF-α secreted by hASC [2]: ↓ | TNF-β secreted by hASC [2]: ↓ | VEGF secreted by hASC [2]: UC | HGF secretion upregulation (absence of exogenous TGF-β1): 7.65 times | HGF secretion upregulation (presence of exogenous TGF-β1): 4.16 times
